Results on two molecules are retold here after PMC4081071.

One data set addresses T1, GLD-1 KH-QUA2 P228A (Caenorhabditis elegans, UniProt Q17339 195-336, P228A).
T1 sequence: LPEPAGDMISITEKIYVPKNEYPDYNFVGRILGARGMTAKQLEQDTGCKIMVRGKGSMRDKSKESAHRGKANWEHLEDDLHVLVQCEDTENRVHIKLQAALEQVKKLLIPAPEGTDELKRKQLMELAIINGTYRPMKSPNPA
The experiment in a line: ITC. For orientation: ITC needs no label: the signal is the heat of the interaction.

In data set [1] the target is T2, GLD-1 KH-QUA2 (Caenorhabditis elegans, UniProt Q17339 195-336).
T2 sequence: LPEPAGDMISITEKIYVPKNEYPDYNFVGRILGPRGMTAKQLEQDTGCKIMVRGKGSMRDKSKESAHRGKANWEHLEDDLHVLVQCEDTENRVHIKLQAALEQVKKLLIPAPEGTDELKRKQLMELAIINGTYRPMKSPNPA
The experiment in a line: ITC.

Another data set addresses T3, GLD-1 KH-QUA2 P228S (Caenorhabditis elegans, UniProt Q17339 195-336, P228S).
T3 sequence: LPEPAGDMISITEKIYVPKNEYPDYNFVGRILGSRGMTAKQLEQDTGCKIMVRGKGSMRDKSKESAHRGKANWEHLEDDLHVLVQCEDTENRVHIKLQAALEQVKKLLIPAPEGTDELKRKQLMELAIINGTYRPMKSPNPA
As to the kind of experiment: NMR HSQC titration.

Data set [2] concerns the target T2, GLD-1 KH-QUA2. As to the kind of experiment: NMR HSQC titration.

Usually Kd stands for the equilibrium constant for the complex coming apart. High values mean lower affinity, low ones higher affinity. For CUACUCAUAU (ssRNA) [tra-2 TGE strong site], the binding signal with GLD-1 KH-QUA2 P228A was 19 fold decrease in affinity vs wild type. This molecule showed a dissociation constant Kd with GLD-1 KH-QUA2 [1] of 61 ± 3 nM. Besides, the binding result in the data set with GLD-1 KH-QUA2 P228S was “binds”.
Consider AUUUAAUUU (ssRNA) [tra-2 TGE weak site], for which the binding result with GLD-1 KH-QUA2 [2] is recorded as “binds”.
